According to the supplement of paper PMC10724198:
± gives the standard deviation of the averaged measurements.

System: Saccharomyces cerevisiae
Assay: protein stability index of tFT-peptide fusion (C-terminal peptide) (PSI (0-1 scale)); higher = more stable (slower turnover)
Conditions: genetic background: wild type; temperature: 30 C
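Further: PSI is a weighted mean of sequencing reads over stability bins, variants kept only with over 10 reads, mCherry proximal and sfGFP distal, peptide attached via GGGS linker.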

Sequence	protein stability index
LPSSSPHPADPS	0.643 ± 0.08
VGVSFSFGSIFL	0.687 ± 0.022
LFERSFSSHPVL	0.769 ± 0.13
VFAWFSGGARLT	0.717 ± 0.0076
TSIDVLKCVYIQ	0.5549 ± 0.0054
VLKRYILRNEKD	0.697 ± 0.027
CCPVTLLLPFPL	0.606 ± 0.01
NYKVRKQKVDRN	0.674 ± 0.062
PPLASPDPPLPL	0.66 ± 0.083
PRLPLPSRPSPR	0.655 ± 0.064
KGRLVGWDRNRI	0.75 ± 0.07
SGLGRPHLRCLD	0.672 ± 0.042
PKKNIKSKNIIL	0.714 ± 0.034
GGACGRRSEDCQ	0.633 ± 0.087
GPSTPPPRAPGT	0.7045 ± 0.0031
RPPPSPPPIPSP	0.666 ± 0.033
LRPRPPTLPPSR	0.638 ± 0.04
RSFVSRGSILWF	0.723 ± 0.13
AGCGGIWGLWVL	0.723 ± 0.05
GVECGSVCGGGG	0.651 ± 0.013
CPRPPPPTACPV	0.641 ± 0.1
GENTRKNNVVGE	0.69 ± 0.017
PTCALPKLLTHP	0.796 ± 0.021
AVCGSISSWMWF	0.696 ± 0.0092
RPKWLCAIATAD	0.687 ± 0.023

Sequence	protein stability index
AGSVIPCPASRP	0.695 ± 0.029
FLSARVSSSLLL	0.639 ± 0.035
IPSCAGLPLSLS	0.7134 ± 0.0019
STVPDRPRLPVY	0.674 ± 0.022
LTLQIWNLVSHL	0.599 ± 0.071
PLPQNIPFPLPL	0.735 ± 0.019
CHRSSPPPPPPT	0.711 ± 0.046
GVRRSQSCPVRS	0.7065 ± 0.0051
TIIEHYMMINEK	0.692 ± 0.064
PMHVLTKLCDGV	0.689 ± 0.083
LDSGQALLSIPI	0.643 ± 0.12
GVCWGNFGWRAV	0.6839 ± 0.005
SFLSPPSPPHSP	0.639 ± 0.01
DQIDGPCNSRTR	0.674 ± 0.023
PPPPPPLTPTFP	0.6601 ± 0.0036
PALGLELYFVLV	0.519 ± 0.012
QKKNSKKIKPKR	0.694 ± 0.026
TVRIGKYTGNGV	0.738 ± 0.017
GGGGVACAGCTV	0.637 ± 0.056
EGPEGRDVVRRY	0.644 ± 0.0096
PPPPPAIPRRRT	0.678 ± 0.033
LRYENSQRKELR	0.653 ± 0.055
KKKKQIKKTKKK	0.701 ± 0.047
PASCARVFVGMS	0.67 ± 0.037
KKNLHEQIGEAI	0.687 ± 0.051

Sequence	protein stability index
RVRGGGPRESGQ	0.728 ± 0.024
FSLLSFLLPLFP	0.787 ± 0.12
GKRRKKDGNKKR	0.621 ± 0.066
CGTYFRLTRCAV	0.577 ± 0.043
RVGHGHRSPTRV	0.677 ± 0.14
CTICQLASKAIC	0.599 ± 0.04
FLFFLLLYVFFC	0.498 ± 0.048
VTLRLCGQSVVV	0.585 ± 0.0085
LAARTKAQARHN	0.652 ± 0.04
PPPRFRLSSFPT	0.701 ± 0.021
GRGLRWSWGCGG	0.693 ± 0.064
SLFMRLPLQSSF	0.65 ± 0.041
PGRMEKKALKRP	0.677 ± 0.014
CAIGTGTKVKPS	0.684 ± 0.016
REREKITRKRNT	0.69 ± 0.01
TLSPGYTFPLSL	0.743 ± 0.023
LLPSPSPASSPS	0.74 ± 0.1
PSLFFLPPPPSP	0.695 ± 0.0096
TAPGYLGFSPFE	0.713 ± 0.034
GRGLFRVVGLWV	0.614 ± 0.043
AISSPVLSYATP	0.657 ± 0.0035
AFSASLAGSGRS	0.736 ± 0.046
GLNLDLSGRLAF	0.703 ± 0.032
PRASSPPPPTAS	0.666 ± 0.024
RLFTTVHSLQDV	0.674 ± 0.016

Sequence	protein stability index
LPDSYAVVPPTS	0.642 ± 0.068
APVWSINKTRVM	0.671 ± 0.045
WGEKTRKVQGCG	0.695 ± 0.066
CSAHVPAPHSYR	0.704 ± 0.061
DVLGLSSRPFRV	0.665 ± 0.015
KKKKKKNTHNTK	0.646 ± 0.07
VEGINSQERLGV	0.724 ± 0.07
RDVVRGVSRGGR	0.714 ± 0.02
GGGAAGILWGLG	0.694 ± 0.013
GDNRSVSRKAEW	0.614 ± 0.047
CQILLSYSGYPH	0.589 ± 0.021
PASDPPHRDPPH	0.658 ± 0.019
KKKKIKIKKKKI	0.763 ± 0.043
RAPMQPTATQAP	0.654 ± 0.035
FVFGECRGWALV	0.76 ± 0.046
HPTDVAISPRPS	0.678 ± 0.023
KIGNQLQELRRI	0.696 ± 0.017
PPFSLVTGLPCP	0.71 ± 0.048
AAAWWGPRNRGL	0.6749 ± 0.0056
APSFSSPPVPLF	0.698 ± 0.0085
ERPIRPQCVHRM	0.73 ± 0.015
SPSGCVGSSAQS	0.68061 ± 0.00045
DEVGVGASSNVF	0.619 ± 0.037
SRFGSVSCRPSI	0.713 ± 0.079
EVSSGGQRVGRS	0.763 ± 0.018

Sequence	protein stability index
EESKEKKKNEEE	0.63584 ± 4.9e-05
KKKKLKQKKNKQ	0.655 ± 0.008
PLPPHVPPSLPP	0.679 ± 0.0083
YAERNKKTLKDT	0.638 ± 0.011
GGRGPRGAANRG	0.634 ± 0.066
FGVVGAVGWRLR	0.638 ± 0.03
VIRQVKFDRKCS	0.681 ± 0.068
LIHSSCSCPWCD	0.666 ± 0.011
SKIQDHLNTAPE	0.654 ± 0.058
GLFDLLCHCCWL	0.702 ± 0.05
GEQEKRFFLSPL	0.717 ± 0.021
DARKTKNRKDTA	0.699 ± 0.024
GAPRESSEGRAQ	0.725 ± 0.095
DLYPSVWVSIGP	0.721 ± 0.019
TCLWVCAWGFGG	0.716 ± 0.011
RGLVLWVVSGRG	0.6155 ± 0.0045
RPPFPLRTSPLV	0.694 ± 0.037
GCGDSLGGERRE	0.643 ± 0.1
IDKVTNTGSRKV	0.582 ± 0.05
RGGGSWWCGGDQ	0.76 ± 0.024
VCLCGGLGWVLF	0.634 ± 0.029
CLGSVFYCCWNF	0.648 ± 0.025
TNILMHGHKRSC	0.676 ± 0.13
VRARSTSCGIWC	0.692 ± 0.045
FDFFLPFLCSSL	0.827 ± 0.2

Sequence	protein stability index
PPYPPGLPSLPP	0.689 ± 0.043
FCPPLSFPPPLS	0.718 ± 0.13
WRQRLKTNNITT	0.733 ± 0.018
SPFPFLLTAPLA	0.538 ± 0.0094
VEVGAWMVGCSE	0.6113 ± 0.0012
QDFDHPNSIRLP	0.671 ± 0.027
GLLAIVLYEYTG	0.537 ± 0.0083
ARSERVVPKMQS	0.732 ± 0.043
ELKKKYNEKKRI	0.6885 ± 0.002
FRMNEVSWDVVS	0.675 ± 0.032
WGGGGLRGGWDG	0.738 ± 0.03
LRFRGKSQNDYD	0.67 ± 0.058
VIISDPNKDTRL	0.645 ± 0.066
AFPSISNEVVSV	0.707 ± 0.017
GVEVSVFFFHFL	0.576 ± 0.097
TPRPPPSSFLSL	0.679 ± 0.05
LLRFVGVRVRGA	0.646 ± 0.094
SPSSLPPVPPSP	0.6764 ± 0.0036
GTCWAGALGVVG	0.684 ± 0.04
SPLVSSPPPALL	0.643 ± 0.081
TLYLCALPALSR	0.615 ± 0.0075
